This data set deals with the molecule itself. Description: cryo-EM structure; single-particle analysis of native membrane vesicles holding ALFA-tagged Stomatin, isolated on ALFA Selector CE resin and eluted with 0.2 mM ALFA peptide; 20 mM K-HEPES pH 7.4, 300 mM KCl, 5 mM DTT; C16 then local C8 symmetry.

B1: human Stomatin (natural protein, UniProt P27105-1 1-288, looked up)
chain: MAEKRHTRDSEAQRLPDSFKDSPSKGLGPCGWILVAFSFLFTVITFPISIWMCIKIIKEYERAIIFRLGRILQGGAKGPGLFFILPCTDSFIKVDMRTISFDIPPQEILTKDSVTISVDGVVYYRVQNATLAVANITNADSATRLLAQTTLRNVLGTKNLSQILSDREEIAHNMQSTLDDATDAWGIKVERVEIKDVKLPVQLQRAMAAEAEASREARAKVIAAEGEMNASRALKEASMVITESPAALQLRYLQTLTTIAAEKNSTIVFPLPIDMLQGIIGAKHSHLG
notes: Stomatin, human, UniProt P27105-1; full-length protein in its membrane environment; The final atomic model includes residues 14-18 and 29-278; The 16 identical chains adopt two alternating conformations (Conformer A and B); also called N-terminal ALFA-tagged human Stomatin; Stomatin complex; source: HEK293S GnTI- cells infected with BacMam baculovirus (pEG BacMam); isolated in native membrane …
B1: the “stoichiometry N” value stood at 16.

Source of the values: paper PMC12344292, “Structural basis for membrane microdomain formation by a human Stomatin complex” (Nature Communications, 2025).
